The values below come from patent US20140024555A1 (LOS ALAMOS NATIONAL SECURITY, published 2014).

Test [1] deals with T1, YBGK of Escherichia coli with C-terminal GFP S11 tag (Escherichia coli, UniProt P75745 1-310).
T1 construct: Labelled by complementation with co-expressed GFP 1-10 detector; also called last subunit of YBGJ/YBGK (predicted allophanate hydrolase); not shown: flexible linker and C-terminal GFP S11 tag of the pTET S11 vector
T1 sequence: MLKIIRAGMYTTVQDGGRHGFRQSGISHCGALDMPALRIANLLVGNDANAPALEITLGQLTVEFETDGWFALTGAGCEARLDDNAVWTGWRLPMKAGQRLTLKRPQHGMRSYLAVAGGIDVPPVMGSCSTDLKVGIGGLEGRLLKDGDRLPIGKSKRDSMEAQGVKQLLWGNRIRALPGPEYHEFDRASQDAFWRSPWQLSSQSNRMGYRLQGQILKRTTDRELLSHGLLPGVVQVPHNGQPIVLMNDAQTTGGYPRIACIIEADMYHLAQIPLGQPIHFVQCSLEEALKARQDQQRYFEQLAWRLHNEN
Nature of the test: colony filtration immobilized bead assay, capture plates with TNG buffer (FIG. 4B); complex 6.

In test [2] the target is T2, YheM subunit of the E. coli YheML construct, with N-terminal 6-His tag (Escherichia coli, UniProt P45531 1-119).
T2 construct: Negative control construct in which YheN is omitted; the first subunit of each construct carries the 6-His tag; also called TusC; first subunit of Yhe ML; not shown: N-terminal 6-His tag from the N-6His pTET S11 vector
T2 sequence: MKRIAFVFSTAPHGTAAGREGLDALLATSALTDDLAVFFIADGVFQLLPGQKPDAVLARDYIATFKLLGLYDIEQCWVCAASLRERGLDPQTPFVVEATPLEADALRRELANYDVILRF
Kind of test: colony filtration immobilized bead assay: 6-His subunit captured on Talon resin in agarose, GFP S11 subunit read by complemented GFP fluorescence; YheML construct with YheN omitted.

B1: YBGJ of Escherichia coli with N-terminal 6-His tag (other)
chain: MQRARCYLIGETAVVLELEPPVTLASQKRIWRLAQRLVDMPNVVEAIPGMNNITVILRNPESLALDAIERLQRWWEESEALEPESRFIEIPVVYGGAGGPDLAVVAAHCGLSEKQVVELHSSVEYVVWFLGFQPGFPYLGSLPEQLHTPRRAEPRLLVPAGSVGIGGPQTGVYPLATPGGWQLIGHTSLSLFDPARDEPILLRPGDSVRFVPQKEGVC
notes: also called predicted allophanate hydrolase; not shown: N-terminal 6-His tag from the N-6His pTET S11 vector
On to B1, for which the binding result in test [1] is “binds”.

B2: YheL subunit of the E. coli YheNML / YheML constructs, with C-terminal GFP S11 tag (other)
chain: MLHTLHRSPWLTDFAALLRLLSEGDELLLLQDGVTAAVDGNRYLESLRNAPIKVYALNEDLIARGLTGQISNDIILIDYTDFVRLTVKHPSQMAW
notes: Fluorescently labelled in the cell by complementation with co-expressed GFP 1-10 detector; also called TusB; last subunit of Yhe NML and Yhe ML; not shown: flexible linker and C-terminal GFP S11 tag (beta-strand 11, residues 215-230) of the pTET S11 vector; the S11 variant an
Regarding B2, in test [2], the binding result is reported as “no binding”.
